Our source for the koff and kon values is paper PMC9097876 (Science Immunology, 2022).

The target in the assay is T1, SARS-CoV-2 spike receptor-binding domain (RBD), original Wuhan isolate (SARS-CoV-2, Wuhan isolate, UniProt P0DTC2).
T1 construct: not shown: His tag, C-terminal, kept
As to the kind of experiment: BLI. Conditions: both partners purified.

For orientation: koff means a measure of how fast the partners let go of each other. The kon is the rate constant with which the complex forms. Higher therefore signals faster complex formation.

B1: G32Q4 Fab (Fab, V domains shown)
VH: QVQLVESGGGVVQPGRSLRLSCAASGFTFSRYAMQWVRQAPGKGLEWVAVISYDGNNRYYADSVKGRFTISRDNSKNTLYLQMNSLRAEDTAVYYCARGPPGYYDSSGYYQTPEYFQHWGQGTLVTVSS
VL: QSVLTQPPSVSGAPGQRVTISCTGSSSNIGVGYDVHWYQQFPGTVPKLLIYGNSNRPSGVPDRFSGSKSGTSASLAITGLQAEDEADYYCQSYDSSLSGVVFGGGTKLTVL
Molecule B1 had an off-rate constant (koff) of 0.0066 s⁻¹ and a kon of 1.2e+06 M⁻¹ s⁻¹.
